# Results published in article doi:10.1101/2021.04.29.441928.
# Experiments:
# Experiment in all cases: co-IP
# CD4 R449A (mouse) = CD4 R449A (mouse) (UniProt P06332)
# CD4 Dbl (mouse) = CD4 Dbl (mouse) (UniProt P06332)
# CD4 K452A (mouse) = CD4 K452A (mouse) (UniProt P06332)
# CD4 R426A (mouse) = CD4 R426A (mouse) (UniProt P06332)
# CD4 WT (mouse) = CD4 WT (mouse) (UniProt P06332)
# Chain of Lck (P06240 whole entry): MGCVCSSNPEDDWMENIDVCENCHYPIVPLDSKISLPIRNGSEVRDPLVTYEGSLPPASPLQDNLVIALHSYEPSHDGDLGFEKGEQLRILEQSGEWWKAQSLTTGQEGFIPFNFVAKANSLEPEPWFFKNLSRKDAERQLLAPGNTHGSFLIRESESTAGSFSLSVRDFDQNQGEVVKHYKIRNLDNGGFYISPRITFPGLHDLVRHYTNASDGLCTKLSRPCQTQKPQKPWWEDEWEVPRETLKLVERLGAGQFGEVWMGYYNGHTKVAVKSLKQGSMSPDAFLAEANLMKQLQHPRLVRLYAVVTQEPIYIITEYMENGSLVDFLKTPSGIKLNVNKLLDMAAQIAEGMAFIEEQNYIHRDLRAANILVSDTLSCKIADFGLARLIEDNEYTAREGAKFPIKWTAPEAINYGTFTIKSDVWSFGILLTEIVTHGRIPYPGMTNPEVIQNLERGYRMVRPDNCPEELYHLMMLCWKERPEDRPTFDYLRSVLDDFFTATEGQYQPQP
substance,measurement,setting,value
Lck (from UniProt P06240 1-509) (enzyme),total AUC of the raw Lck signal co-IP'd with CD4,CD4 R449A (mouse),2640
same,total AUC of the raw Lck signal co-IP'd with CD4,CD4 Dbl (mouse),2160
same,total AUC of the raw Lck signal co-IP'd with CD4,CD4 K452A (mouse),2380
same,total AUC of the raw Lck signal co-IP'd with CD4,CD4 R426A (mouse),2920
same,total AUC of the raw Lck signal co-IP'd with CD4,CD4 WT (mouse),2630
